In US11833164B2, “Methods of treating Fabry disease in patients having a mutation in the GLA gene” (Amicus Therapeutics, Inc., priority 2019, dated 2023):

System: mutant form of α-Gal A expressed in HEK-293 cells
Experiment: HEK assay (GLP HEK / Migalastat Amenability Assay): α-Gal A activity in lysates of transiently transfected HEK-293 cells incubated with or without 10 μM migalastat
Format: cell-based, human
Conditions: for Absolute increase (% WT): 10 μM migalastat versus baseline; for 10 μM migalastat α-Gal A activity (% WT): 5 days; for 10 μM migalastat α-Gal A activity (% WT) / Baseline α-Gal A activity (% WT): percentage of baseline wild-type α-Gal A activity; for 10 μM migalastat α-Gal A activity (% WT) / 10 μM migalastat α-Gal A activity / Baseline α-Gal A activity (% WT) / Baseline α-Gal A activity: mean ± SEM; for 10 μM migalastat α-Gal A activity / Baseline α-Gal A activity: lysates of HEK-293 cells transfected with the mutant form; for 10 μM migalastat α-Gal A activity: incubated 5 days with 10 μM migalastat; for Relative increase: 10 μM migalastat α-Gal A activity relative to baseline; for Baseline α-Gal A activity: incubated 5 days in the absence of migalastat
Method: Such mutations or variants are also referred to herein as “HEK assay amenable” mutations or variants.
The α-Gal A activity is expressed as the nmoles of free 4-MU released per milligram of protein per hour (nmol/mg/hr).
In Table 7, values for the mean±standard error of the mean (SEM) were calculated. nmol/mg/hr indicates “nmoles of free 4-MU released per mg of protein per hour”. WT indicates “wild-type”. NC indicates “not calculable”. N/A indicates “not applicable”.

Molecule | Absolute increase (% WT) | 10 μM migalastat α-Gal A activity (% WT) | Baseline α-Gal A activity (nmol/mg/hr) (absence of migalastat, mean activity below the limit of detection (<142 nmol/mg/hr)) | 10 μM migalastat α-Gal A activity [nmol/mg/h] | Relative increase | Baseline α-Gal A activity (% WT) (absence of migalastat) | Baseline α-Gal A activity [nmol/mg/h]
F113Y (protein) MQLRNPELHLGCALALRFLALVSWDIPGARALDNGLARTPTMGWLHWERFMCNLDCQEEPDSCISEKLFMEMAELMVSEGWKDAGYEYLCIDDCWMAPQRDSEGRLQADPQRYPHGIRQLANYVHSKGLKLGIYADVGNKTCAGFPGSFGYYDIDAQTFADWGVDLLKFDGCYCDSLENLADGYKHMSLALNRTGRSIVYSCEWPLYMWPFQKPNYTEIRQYCNHWRNFADIDDSWKSIKSILDWTSFNQERIVDVAGPGGWNDPDMLVIGNFGLSWNQQVTQMALWAIMAAPLFMSNDLRHISPQAKALLQDKDVIAINQDPLGKQGYQLRQGDNFEVWERPLSGLAWAVAMINRQEIGGPRSYTIAVASLGKGVACNPACFITQLLPVKRKLGFYEWTSRLRSHINPTGTVLLQLENTMQMSLKDLL | 4.4 | 4.4 ± 0.3 | BLD (“BLD” indicates that the mean α-Gal A activity was below the limit of detection (<142 nmol/mg/hr)) | 1328 ± 79 | – | – | –
G116R (protein) MQLRNPELHLGCALALRFLALVSWDIPGARALDNGLARTPTMGWLHWERFMCNLDCQEEPDSCISEKLFMEMAELMVSEGWKDAGYEYLCIDDCWMAPQRDSEGRLQADPQRFPHRIRQLANYVHSKGLKLGIYADVGNKTCAGFPGSFGYYDIDAQTFADWGVDLLKFDGCYCDSLENLADGYKHMSLALNRTGRSIVYSCEWPLYMWPFQKPNYTEIRQYCNHWRNFADIDDSWKSIKSILDWTSFNQERIVDVAGPGGWNDPDMLVIGNFGLSWNQQVTQMALWAIMAAPLFMSNDLRHISPQAKALLQDKDVIAINQDPLGKQGYQLRQGDNFEVWERPLSGLAWAVAMINRQEIGGPRSYTIAVASLGKGVACNPACFITQLLPVKRKLGFYEWTSRLRSHINPTGTVLLQLENTMQMSLKDLL | 9.9 | 15.4 ± 1.5 | – | 5251 ± 464 | 2.7 | 5.4 ± 0.3 | 1922 ± 143
Y123D (protein) MQLRNPELHLGCALALRFLALVSWDIPGARALDNGLARTPTMGWLHWERFMCNLDCQEEPDSCISEKLFMEMAELMVSEGWKDAGYEYLCIDDCWMAPQRDSEGRLQADPQRFPHGIRQLANDVHSKGLKLGIYADVGNKTCAGFPGSFGYYDIDAQTFADWGVDLLKFDGCYCDSLENLADGYKHMSLALNRTGRSIVYSCEWPLYMWPFQKPNYTEIRQYCNHWRNFADIDDSWKSIKSILDWTSFNQERIVDVAGPGGWNDPDMLVIGNFGLSWNQQVTQMALWAIMAAPLFMSNDLRHISPQAKALLQDKDVIAINQDPLGKQGYQLRQGDNFEVWERPLSGLAWAVAMINRQEIGGPRSYTIAVASLGKGVACNPACFITQLLPVKRKLGFYEWTSRLRSHINPTGTVLLQLENTMQMSLKDLL | 10.2 | 53.6 ± 2.7 | – | 18723 ± 1237 | 1.2 | 43.4 ± 1.6 | 15093 ± 815
H115D (protein) MQLRNPELHLGCALALRFLALVSWDIPGARALDNGLARTPTMGWLHWERFMCNLDCQEEPDSCISEKLFMEMAELMVSEGWKDAGYEYLCIDDCWMAPQRDSEGRLQADPQRFPDGIRQLANYVHSKGLKLGIYADVGNKTCAGFPGSFGYYDIDAQTFADWGVDLLKFDGCYCDSLENLADGYKHMSLALNRTGRSIVYSCEWPLYMWPFQKPNYTEIRQYCNHWRNFADIDDSWKSIKSILDWTSFNQERIVDVAGPGGWNDPDMLVIGNFGLSWNQQVTQMALWAIMAAPLFMSNDLRHISPQAKALLQDKDVIAINQDPLGKQGYQLRQGDNFEVWERPLSGLAWAVAMINRQEIGGPRSYTIAVASLGKGVACNPACFITQLLPVKRKLGFYEWTSRLRSHINPTGTVLLQLENTMQMSLKDLL | 14.1 | 44.8 ± 3 | – | 15258 ± 1412 | 1.5 | 30.7 ± 2.9 | 10284 ± 1141
I117T (protein) MQLRNPELHLGCALALRFLALVSWDIPGARALDNGLARTPTMGWLHWERFMCNLDCQEEPDSCISEKLFMEMAELMVSEGWKDAGYEYLCIDDCWMAPQRDSEGRLQADPQRFPHGTRQLANYVHSKGLKLGIYADVGNKTCAGFPGSFGYYDIDAQTFADWGVDLLKFDGCYCDSLENLADGYKHMSLALNRTGRSIVYSCEWPLYMWPFQKPNYTEIRQYCNHWRNFADIDDSWKSIKSILDWTSFNQERIVDVAGPGGWNDPDMLVIGNFGLSWNQQVTQMALWAIMAAPLFMSNDLRHISPQAKALLQDKDVIAINQDPLGKQGYQLRQGDNFEVWERPLSGLAWAVAMINRQEIGGPRSYTIAVASLGKGVACNPACFITQLLPVKRKLGFYEWTSRLRSHINPTGTVLLQLENTMQMSLKDLL | 4.7 | 9 ± 0.9 | – | 3303 ± 308 | 2.1 | 4.3 ± 0.2 | 1607 ± 54
I117M (protein) MQLRNPELHLGCALALRFLALVSWDIPGARALDNGLARTPTMGWLHWERFMCNLDCQEEPDSCISEKLFMEMAELMVSEGWKDAGYEYLCIDDCWMAPQRDSEGRLQADPQRFPHGMRQLANYVHSKGLKLGIYADVGNKTCAGFPGSFGYYDIDAQTFADWGVDLLKFDGCYCDSLENLADGYKHMSLALNRTGRSIVYSCEWPLYMWPFQKPNYTEIRQYCNHWRNFADIDDSWKSIKSILDWTSFNQERIVDVAGPGGWNDPDMLVIGNFGLSWNQQVTQMALWAIMAAPLFMSNDLRHISPQAKALLQDKDVIAINQDPLGKQGYQLRQGDNFEVWERPLSGLAWAVAMINRQEIGGPRSYTIAVASLGKGVACNPACFITQLLPVKRKLGFYEWTSRLRSHINPTGTVLLQLENTMQMSLKDLL | 29.4 | 83.5 ± 3.6 | – | 31280 ± 1153 | 1.6 | 54.2 ± 3.9 | 20226 ± 1373
H115N (protein) MQLRNPELHLGCALALRFLALVSWDIPGARALDNGLARTPTMGWLHWERFMCNLDCQEEPDSCISEKLFMEMAELMVSEGWKDAGYEYLCIDDCWMAPQRDSEGRLQADPQRFPNGIRQLANYVHSKGLKLGIYADVGNKTCAGFPGSFGYYDIDAQTFADWGVDLLKFDGCYCDSLENLADGYKHMSLALNRTGRSIVYSCEWPLYMWPFQKPNYTEIRQYCNHWRNFADIDDSWKSIKSILDWTSFNQERIVDVAGPGGWNDPDMLVIGNFGLSWNQQVTQMALWAIMAAPLFMSNDLRHISPQAKALLQDKDVIAINQDPLGKQGYQLRQGDNFEVWERPLSGLAWAVAMINRQEIGGPRSYTIAVASLGKGVACNPACFITQLLPVKRKLGFYEWTSRLRSHINPTGTVLLQLENTMQMSLKDLL | 30.1 | 75 ± 2.5 | – | 23018 ± 1098 | 1.7 | 44.9 ± 2.5 | 13745 ± 890
A121V (protein) MQLRNPELHLGCALALRFLALVSWDIPGARALDNGLARTPTMGWLHWERFMCNLDCQEEPDSCISEKLFMEMAELMVSEGWKDAGYEYLCIDDCWMAPQRDSEGRLQADPQRFPHGIRQLVNYVHSKGLKLGIYADVGNKTCAGFPGSFGYYDIDAQTFADWGVDLLKFDGCYCDSLENLADGYKHMSLALNRTGRSIVYSCEWPLYMWPFQKPNYTEIRQYCNHWRNFADIDDSWKSIKSILDWTSFNQERIVDVAGPGGWNDPDMLVIGNFGLSWNQQVTQMALWAIMAAPLFMSNDLRHISPQAKALLQDKDVIAINQDPLGKQGYQLRQGDNFEVWERPLSGLAWAVAMINRQEIGGPRSYTIAVASLGKGVACNPACFITQLLPVKRKLGFYEWTSRLRSHINPTGTVLLQLENTMQMSLKDLL | 56.7 | 78.2 ± 4.2 | – | 26639 ± 1124 | 3.7 | 21.5 ± 1.2 | 7301 ± 253
P114L (protein) MQLRNPELHLGCALALRFLALVSWDIPGARALDNGLARTPTMGWLHWERFMCNLDCQEEPDSCISEKLFMEMAELMVSEGWKDAGYEYLCIDDCWMAPQRDSEGRLQADPQRFLHGIRQLANYVHSKGLKLGIYADVGNKTCAGFPGSFGYYDIDAQTFADWGVDLLKFDGCYCDSLENLADGYKHMSLALNRTGRSIVYSCEWPLYMWPFQKPNYTEIRQYCNHWRNFADIDDSWKSIKSILDWTSFNQERIVDVAGPGGWNDPDMLVIGNFGLSWNQQVTQMALWAIMAAPLFMSNDLRHISPQAKALLQDKDVIAINQDPLGKQGYQLRQGDNFEVWERPLSGLAWAVAMINRQEIGGPRSYTIAVASLGKGVACNPACFITQLLPVKRKLGFYEWTSRLRSHINPTGTVLLQLENTMQMSLKDLL | 5.4 | 23.7 ± 1.3 | – | 7973 ± 626 | 1.3 | 18.3 ± 2.1 | 6229 ± 901
